Target: Biotinylated human IRE1.KR protein (human) (UniProt O75460)
Assay: SPR; Biacore S200, 20 °C; biotinylated IRE1.KR captured on a streptavidin chip (100-200 RU); VHL titrated without G6374, 8-point 2-fold series, top 5 µM, single cycle kinetics; 50 mM HEPES pH 7.4, 150 mM NaCl, 0.01% Tween 20, 0.2% PEG3350, 0.25 mM TCEP, 100 µg/ml ovalbumin, 2% DMSO

Chain of Biotinylated human IRE1.KR protein (human) (O75460 547-977): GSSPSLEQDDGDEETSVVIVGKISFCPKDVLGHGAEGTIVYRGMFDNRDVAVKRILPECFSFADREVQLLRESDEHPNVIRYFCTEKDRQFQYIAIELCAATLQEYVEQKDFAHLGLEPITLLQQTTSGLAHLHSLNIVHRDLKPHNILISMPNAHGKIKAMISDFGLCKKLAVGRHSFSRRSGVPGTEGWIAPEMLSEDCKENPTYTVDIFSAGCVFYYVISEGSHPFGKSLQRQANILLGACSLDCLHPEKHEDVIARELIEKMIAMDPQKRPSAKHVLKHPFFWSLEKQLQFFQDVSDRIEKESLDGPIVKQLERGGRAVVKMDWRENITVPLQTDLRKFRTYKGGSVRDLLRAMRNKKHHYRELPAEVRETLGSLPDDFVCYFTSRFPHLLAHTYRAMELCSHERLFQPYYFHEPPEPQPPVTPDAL

- KD without G6374: > 10 µM
Substance: his-VHL/EloB (VHL in complex with Elongin B) (from UniProt P40337 1-213; Q15370 1-118)
